Experiments:
[1] = target: T1, FL-MRE11 (human, UniProt P49959 1-708); assay: fluorescence polarization; no metal listed in buffer; apparent Kd, n=1; 10 mM Tris pH 8.0, 25 mM NaCl, 0.1% Tween20, 2 mM DTT; 10 nM DNA; temperature not stated, measured immediately; settings: protein: recombinant; tags: His tag (pNIC28-Bsa4), TEV protease treated; chain copies: 2; label: 5' FITC on TP423; 34 bp duplex (S1[1-34] with S2[1-34]); 3' overhangs 16 nt (S1) and 15 nt (S2)
T1 sequence: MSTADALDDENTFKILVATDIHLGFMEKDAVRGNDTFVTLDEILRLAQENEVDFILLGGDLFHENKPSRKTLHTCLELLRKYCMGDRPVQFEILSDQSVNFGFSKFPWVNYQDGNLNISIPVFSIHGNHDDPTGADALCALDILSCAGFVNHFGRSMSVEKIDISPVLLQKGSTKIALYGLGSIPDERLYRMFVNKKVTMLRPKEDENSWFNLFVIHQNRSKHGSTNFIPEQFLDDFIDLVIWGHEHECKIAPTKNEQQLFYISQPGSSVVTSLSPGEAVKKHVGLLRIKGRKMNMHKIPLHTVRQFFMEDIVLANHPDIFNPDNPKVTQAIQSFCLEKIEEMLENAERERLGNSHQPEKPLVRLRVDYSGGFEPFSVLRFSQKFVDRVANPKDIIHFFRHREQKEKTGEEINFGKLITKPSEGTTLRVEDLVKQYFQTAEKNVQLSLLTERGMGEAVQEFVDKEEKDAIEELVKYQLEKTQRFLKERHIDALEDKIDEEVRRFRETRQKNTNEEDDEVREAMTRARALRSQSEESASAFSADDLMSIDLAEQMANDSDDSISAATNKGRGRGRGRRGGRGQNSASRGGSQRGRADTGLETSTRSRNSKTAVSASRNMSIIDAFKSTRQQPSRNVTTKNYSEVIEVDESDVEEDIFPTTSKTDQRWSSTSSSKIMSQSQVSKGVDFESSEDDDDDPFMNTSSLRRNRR

[2] = target: T2, TR-MRE11 (human, UniProt P49959 1-568, del569-708); assay: fluorescence polarization; no metal listed in buffer; apparent Kd, n=1; 7-fold lower affinity than FL; 10 mM Tris pH 8.0, 25 mM NaCl, 0.1% Tween20, 2 mM DTT; 10 nM DNA; temperature not stated, measured immediately; settings: protein: recombinant; tags: His-SUMO tag removed by SUMO protease; chain copies: 2; label: 5' FITC on TP423; 34 bp duplex (S1[1-34] with S2[1-34]); 3' overhangs 16 nt (S1) and 15 nt (S2)
T2 sequence: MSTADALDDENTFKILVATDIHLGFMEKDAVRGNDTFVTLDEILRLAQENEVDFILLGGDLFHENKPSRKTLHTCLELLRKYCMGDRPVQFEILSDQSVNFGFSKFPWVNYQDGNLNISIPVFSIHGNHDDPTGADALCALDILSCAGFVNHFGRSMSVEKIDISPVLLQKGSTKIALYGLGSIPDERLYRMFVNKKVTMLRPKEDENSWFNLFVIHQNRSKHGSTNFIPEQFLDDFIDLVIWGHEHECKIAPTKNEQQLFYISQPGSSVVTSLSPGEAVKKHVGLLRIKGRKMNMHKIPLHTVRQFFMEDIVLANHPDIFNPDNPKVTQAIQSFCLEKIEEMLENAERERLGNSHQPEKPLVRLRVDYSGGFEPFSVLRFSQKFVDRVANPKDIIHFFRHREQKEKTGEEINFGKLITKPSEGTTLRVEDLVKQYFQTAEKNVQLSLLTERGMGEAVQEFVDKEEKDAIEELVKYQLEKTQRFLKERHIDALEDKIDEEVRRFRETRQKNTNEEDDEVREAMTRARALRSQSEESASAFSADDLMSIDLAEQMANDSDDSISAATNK

B1: TP423/TP424 3'-overhang duplex (dsDNA)
DNA 1: CTGCAGGGTTTTTGTTCCAGTCTGTAGCACTGTGTAAGACAGGCCAGATC
DNA 2: CACAGTGCTACAGACTGGAACAAAAACCCTGCAGTACTCTACTCATCTC
Kd [1]: 34.6 nM | Kd [2]: 242 nM

Source: paper PMC7870818, “SPRTN protease-cleaved MRE11 decreases DNA repair and radiosensitises cancer cells”
